# Measured values from US20190008955A1 (SORRENTO THERAPEUTICS, published 2019).
# Where a chain is given by its changes, count along the chain named.
# T1: human CXCR3 (human, UniProt P49682 1-368)
# T1 sequence (looked up): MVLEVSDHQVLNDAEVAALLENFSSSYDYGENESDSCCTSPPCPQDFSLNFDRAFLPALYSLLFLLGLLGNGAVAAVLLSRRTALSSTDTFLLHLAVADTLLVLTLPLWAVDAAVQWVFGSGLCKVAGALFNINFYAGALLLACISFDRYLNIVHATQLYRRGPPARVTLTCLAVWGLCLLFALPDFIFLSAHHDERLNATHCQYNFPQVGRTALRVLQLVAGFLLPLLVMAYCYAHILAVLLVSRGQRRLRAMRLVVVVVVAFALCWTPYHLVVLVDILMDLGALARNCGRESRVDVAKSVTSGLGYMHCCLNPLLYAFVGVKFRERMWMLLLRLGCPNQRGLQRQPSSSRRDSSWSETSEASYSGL
# T2: murine CXCR3 (murine, UniProt O88410 1-367)
# T2 construct: whole, on cells; target is the endogenous receptor on B16-F10 cells; also called mur CXCR3
# T2 sequence (looked up): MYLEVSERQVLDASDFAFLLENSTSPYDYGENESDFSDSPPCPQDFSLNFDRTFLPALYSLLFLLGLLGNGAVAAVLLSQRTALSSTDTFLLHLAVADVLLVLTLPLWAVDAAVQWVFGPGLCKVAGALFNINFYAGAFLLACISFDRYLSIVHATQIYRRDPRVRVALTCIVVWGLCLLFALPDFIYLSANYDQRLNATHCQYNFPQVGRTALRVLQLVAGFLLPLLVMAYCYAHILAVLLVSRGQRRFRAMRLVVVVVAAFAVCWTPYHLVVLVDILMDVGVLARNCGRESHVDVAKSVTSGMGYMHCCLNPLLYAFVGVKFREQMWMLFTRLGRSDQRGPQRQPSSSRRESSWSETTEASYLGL
# B1: 32B12 (antibody, V domains shown)
# VH: EVQLVQSGGGLVKSGRSLRLSCTVSGFTFGNSAMSWFRQAPGKGLEWVSSISSSSSYIYYADSVKGRFTISRDNAKNSLYLQMNSLRAEDTAVYYCARDLSGRGYSYLNYWGQGTLVTVSS
# VL: SYELTQPPSVSAAPGQKVTISCSGSSSNIGNSYVSWFQQFPGTAPKLVIYENNKRPSGIPDRFSGSKSGTSATLGITGLQTGDEADYYCGTWDSSLSGRVFGGGTKLTVL
# notes: Described as a fully human antibody of an IgG class and detected with anti-human IgG (gamma-chain specific); also called anti-CXCR3 antibody 32B12; clone 32B12
# B2: 32D12 (antibody, V domains shown)
# VH: EVQLLESGGGLVQPGGSQRLSCAASGFTFSSYPMTWVRQAPGKGLEWVSAISDGGSGTYYADSVKGRFTISRDNSKNTLYLQMNSLRAEDTAIYYCARYKMGGSYRGLDDWGQGTLVTVSS
# VL: LPVLTQPASVSGSPGQPITISCTGTSGNIGSYNYVSWYQQHPGKAPRLLIYDVSLRPSGISSHFSGSKSGNTASLTISGLQAEDEAEYFCLSWTSDKTYVFGSGTKLTVL
# notes: Fully human IgG class
# B3: 2A3 (antibody, V domains shown)
# VH: QVQLVQSGAEVKKPGSSVKVACKASGGTFSHSAISWVRQAPGQGLEWIGRTIPTLEMASYAQKFQGRVTISADKSTRTGYMELRDLRSEDTAVYYCSTQTPSYTDHWGQGTLVTVSS
# VL: DIVMTQTPLSLPVTLGQPASISCRSSQSLVHSDGNTYLNWFQQRPGQSPRRLIYKVSNRDSGVPDRFSGSGSGTDFTLKISRVEAEDVGVYYCMQGTHWPLTFGGGTKVEIK
# notes: Fully human IgG class
# B4: F7 (antibody, V domains shown)
# VH: B3 VH
# VL: B3 VL with S26N, N39Y, S81N, L101N, G105Q, V109L
# notes: Fully human IgG class; 31
# B5: 3A3 (antibody, V domains shown)
# VH: QVQLVQSGAEVKKPGSSVKVSCKASGGTFNRYAFSWVRQAPGQGPELMGRIMPMFDIASYAQKFQGRLTITADKSTSTAYMELSSLRSDDTAVYYCTQVSGDSDYWGPGTLVTVSS
# VL: B3 VL with S32N, Q42H, S61F, K79R, T97S
# notes: Fully human IgG class
# B6: 3A11 (antibody, V domains shown)
# VH: QVQLVQSGGGLVKPGGSLRLSCAASGFTFTSSGMNWVRQAPGKGLEWVAYIFPNGKTLYPESVKGRFIITRDNAEKSLFLEMNNLRAEDMGVYYCAIDLNWGSGYWGQGTLVTVSS
# VL: SYVLTQPPSVSKGLRQTATLTCTGNINNVGNVGATWLQQHQGHPPKLLSDRNNNRPSGISERFSASRSGNAASLTITGLQPEDEADYYCSAWDTSLGAWVFGGGTKLTVL
# notes: Fully human IgG class
# B7: 3C11 (antibody, V domains shown)
# VH: EVQLVESGGGLVQPGGSLRLSCSASGFTFSSYAMHWVRQAPGKGLEYVSAISSNGGSTYYADSVKGRFTISRDNSKNTLYLQMSSLRAEDTAVYYCVKSIAAAGTQYYYYYMDVWGKGTTVTVSS
# VL: DIQLTQSPSSLSASVGDRVTITCRASQGIGTYLAWFQQKPGKVPKPLIYAASTLQSGVPSRFSGSGSGADFTLTISSLQPEDVATYYCQKYNSVPQTFGQGTKVEIK
# notes: Fully human IgG class
# Key:
# human CXCR3 [1] = target: T1, human CXCR3; experiment: cell-based or functional assay
# murine CXCR3 = target: T2, murine CXCR3; experiment: flow cytometry, antibody titration on murine B16-F10 cells
# Method: In this example, murine B16-F10 cells (ATCC, #CRL-6475) were lifted from culture flasks using non-enzymatic Cell Dissociation Buffer-PBS based (Life Technologies #13151-014). Cells were harvested, washed and resuspended in FACS Buffer (2% Fetal Bovine Serum in PBS) at 1×10⁶ cells/ml and 50 μl (0.5×10⁵ cells) were aliquoted into the wells of a 96-well plate. Plated cells were spun down and the supernatant discarded. Cells were resuspended in 30 μl FACS Buffer serially diluted concentrations of antibody in triplicate. Plates were incubated for 1 hr at 4° C. and then washed 2× with FACS Buffer. Cells were resuspended in 50 μl goat anti-human IgG (γ-chain specific)-PE conjugated secondary antibody (Southern Biotech #2040-09) diluted 1:500 in FACS Buffer. Cells were further incubated for 30 min at 4° C. and then washed 1× with FACS Buffer. The cells were resuspended in a final volume of 30 μl FACS Buffer and analyzed using the Intellicyt Flow Cytometer. Median fluorescence in the FL-2H channel was determined using FlowJo software and the EC₅₀ value was determined by plotting the data in GraphPad Prism and analyzing using a variable slope non-linear regression.
# human CXCR3 [2] = target: T1, human CXCR3; experiment: flow cytometry, antibody titration on CHO-CXCR3 cells
# Method: In this example, CHO-CXCR3 cells were lifted from culture flasks using non-enzymatic Cell Dissociation Buffer-PBS based (Life Technologies #13151-014). Cells were resuspended in FACS Buffer (2% Fetal Bovine Serum in PBS) at 1×10⁶ cells/ml and 50 μl (0.5×10⁵ cells) were aliquoted into the wells of a 96-well plate. Plated cells were spun down and the supernatant discarded. Cells were resuspended in 30 μl FACS Buffer containing serially diluted concentrations of antibody in triplicate. Plates were incubated for 1 hr at 4° C. and then washed twice with FACS Buffer. Cells were resuspended in 50 μl goat anti-human IgG (γ-chain specific)-PE conjugated secondary antibody (Southern Biotech #2040-09) diluted 1:500 in FACS Buffer. Cells were further incubated for 30 min at 4° C. and then washed 1× with FACS Buffer. The cells were resuspended in a final volume of 30 μl FACS Buffer and analyzed using the Intellicyt Flow Cytometer. Median fluorescence in the FL-2H channel was determined using FlowJo software and EC₅₀ value was determined by plotting the data in GraphPad Prism and analyzing using a variable slope non-linear regression.
# human CXCR3 [3] = target: T1, human CXCR3; experiment: cell-based or functional assay; remark: listed apart in the source
binder,measurement,setting,value
B1,"IC50 [nM] in a chemotaxis assay using activated T cells, ligand CXCL9 (30 nM)",human CXCR3 [1],0.6 nM
same,"IC50 [nM] in a chemotaxis assay using activated T cells, ligand CXCL10 (12.5 nM)",human CXCR3 [1],0.2 nM
same,"IC50 [nM] in a chemotaxis assay using activated T cells, ligand CXCL11 (0.3 nM)",human CXCR3 [1],0.3 nM
same,EC50,murine CXCR3,25 nM
same,EC50,human CXCR3 [2],1 nM
same,"IC50 [nM] in a calcium flux assay using CHO-CXCR3 cells, ligand CXCL9 (200 nM)",human CXCR3 [3],37 nM
same,"IC50 [nM] in a calcium flux assay using CHO-CXCR3 cells, ligand CXCL10 (164 nM)",human CXCR3 [3],7 nM
same,"IC50 [nM] in a calcium flux assay using CHO-CXCR3 cells, ligand CXCL11 (60 nM)",human CXCR3 [3],16 nM
B2,"IC50 [nM] in a chemotaxis assay using activated T cells, ligand CXCL9 (30 nM)",human CXCR3 [1],2.5 nM
same,"IC50 [nM] in a chemotaxis assay using activated T cells, ligand CXCL10 (12.5 nM)",human CXCR3 [1],0.03 nM
same,"IC50 [nM] in a chemotaxis assay using activated T cells, ligand CXCL11 (0.3 nM)",human CXCR3 [1],3.4 nM
same,EC50,human CXCR3 [2],4 nM
same,"IC50 [nM] in a calcium flux assay using CHO-CXCR3 cells, ligand CXCL11 (60 nM)",human CXCR3 [3],19 nM
B3,EC50,human CXCR3 [2],11 nM
B4,EC50,human CXCR3 [2],5 nM
B5,EC50,human CXCR3 [2],0.5 nM
B6,EC50,human CXCR3 [2],1.2 nM
B7,EC50,human CXCR3 [2],0.6 nM
